Residue numbers refer to the chain shown, from its start. Names may count otherwise.
B1: NSFCh07 (wild-type NSF encoded by Glyma.07G195900, soybean reference genome Williams 82) (enzyme)
chain: MASRFGLSSSSSSASSMRVTNTPASDLALTNLAFCSPSDLRNFAVPGHNNLYLAAVADSFVLSLSAHDTIGSGQIALNAVQRRCAKVSSGDSVQVSRFVPPEDFNLALLTLELEFVKKGSKSEQIDAVLLAKQLRKRFMNQVMTVGQKVLFEYHGNNYSFTVSNAAVEGQEKSNSLERGMISDDTYIVFETSRDSGIKIVNQREGATSNIFKQKEFNLQSLGIGGLSAEFADIFRRAFASRVFPPHVTSKLGIKHVKGMLLYGPPGTGKTLMARQIGKILNGKEPKIVNGPEVLSKFVGETEKNVRDLFADAEQDQRTRGDESDLHVIIFDEIDAICKSRGSTRDGTGVHDSIVNQLLTKIDGVESLNNVLLIGMTNRKDMLDEALLRPGRLEVQVEISLPDENGRLQILQIHTNKMKENSFLAADVNLQELAARTKNYSGAELEGVVKSAVSYALNRQLSLEDLTKPVEEENIKVTMDDFLNALHEVTSAFGASTDDLERCRLHGMVECGDRHKHIYQRAMLLVEQVKVSKGSPLVTCLLEGSRGSGKTALSATVGIDSDFPYVKIVSAESMIGLHESTKCAQIIKVFEDAYKSPLSVIILDDIERLLEYVPIGPRFSNLISQTLLVLLKRLPPKGKKLMVIGTTSELDFLESIGFCDTFSVTYHIPTLNTTDAKKVLEQLNVFTDEDIDSAAEALNDMPIRKLYMLIEMAAQGEHGGSAEAIFSGKEKISIAHFYDCLQDVVRL
notes: Recombinant protein from E. coli; also called NSFCh07WT; NSF-WT
B2: NSFRAN07 (Rhg1-associated NSF from chromosome 07, allele of Glyma.07G195900) (enzyme)
chain: MASQFGLSSSSSSASSMRVTYTPANDLALTNLAFCSPSDLRNFAVPGHNNLYLAAVADSFVLSLSAHDTIGSGQIALNAVQRRCAKVSSGDSVQVSRFVPPEDFNLALLTLELEFFVKKGSKSEQIDAVLLAKQLRKRFMNQVMTVGQKVLFEYHGNNYSFTVSNAAVEGQEKSNSLERGIISDDTYIVFETSRDSGIKIVNQREGATSNIFKQKEFNLQSLGIGGLSAEFADIFRRAFASRVFPPHVTSKLGIKHVKGMLLYGPPGTGKTLMARQIGKILNGKEPKIVNGPEVLSKFVGETEKNVRDLFADAEQDQRTRGDESDLHVIIFDEIDAICKSRGSTRDGTGVHDSIVNQLLTKIDGVESLNNVLLIGMTNRKDMLDEALLRPGRLEVQVEISLPDENGRLQILQIHTNKMKENSFLAADVNLQELAARTKNYSGAELEGVVKSAVSYALNRQLSLEDLTKPVEEENIKVTMDDFLNALHEVTSAFGASTDDLERCRLHGMVECGDRHKHIYQRAMLLVEQVKVSKGSPLVTCLLEGSRGSGKTALSATVGIDSDFPYVKIVSAESMIGLHESTKCAQIIKVFEDAYKSPLSVIILDDIERLLEYVPIGPRFSNLISQTLLVLLKRLPPKGKKLMVIGTTSELDFLESIGFCDTFSVTYHIPTLNTTDAKKVLEQLNVFTDEDIDSAAEALNDMPIRKLYMLIEMAAQGEHGGSAEAIFSGKEKISIAHFYDCLQDVVRL
notes: Recombinant protein from E. coli, ORF cloned from Forrest (Rhg1LC) cDNA; Differs from NSFCh07 by R4Q, N21Y, S25N, insertion 116F and M181I; also called Glyma.07G195900 RAN07

Columns and labels:
[1] = molecular target: T1, α-SNAPRhg1HC (high copy Rhg1 resistance-type α-SNAP, Glyma.18G022500 Fayette) (Glycine max (soybean)); test: in vitro binding: α-SNAP adsorbed to tube, recombinant NSF added, bound NSF on silver-stained SDS-PAGE, ImageJ densitometry
T1 construct: Recombinant protein, His-SUMO tag cleaved off; also called high copy (HC) Rhg1 α-SNAP
T1 chain: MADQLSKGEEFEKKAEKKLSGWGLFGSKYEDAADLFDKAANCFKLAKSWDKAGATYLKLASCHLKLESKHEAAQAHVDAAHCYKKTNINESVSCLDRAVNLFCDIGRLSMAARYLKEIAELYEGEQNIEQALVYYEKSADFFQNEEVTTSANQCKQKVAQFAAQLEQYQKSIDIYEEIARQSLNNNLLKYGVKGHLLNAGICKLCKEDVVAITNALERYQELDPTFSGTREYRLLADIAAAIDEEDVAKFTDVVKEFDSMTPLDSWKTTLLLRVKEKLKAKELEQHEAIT
Source text: (§1) All Rhg1-containing HG type test and NAM lines contained NSFRAN07, and α-SNAPRhg1HC and α-SNAPRhg1LC are polymorphic at C-terminal residues that bind and stimulate NSF. Therefore, the impact of NSFRAN07 polymorphisms on binding to both Rhg1 resistance-type α-SNAPs and α-SNAPRhg1WT was investigated. Recombinant NSFRAN07, NSFCh07 and Rhg1 α-SNAP proteins were produced for in vitro binding studies as previously described in (Barnard et al., 1997, J Cell Biol 139, 875-883; (Bayless et al. 2016, Proc. Natl. Acad. Sci. USA 113, E7375-E7382). NSFRAN07 and NSFCh07 binding was quantified using ImageJ densitometry across three independent experiments (FIG. 3D). NSFCh07 binding to α-SNAPRhg1HC and α-SNAPRhg1LC was reduced compared to α-SNAPRhg1WT (FIG. 3C). In contrast, NSFRAN07 binding to α-SNAPRhg1HC or α-SNAPRhg1LC was similar to α-SNAPRhg1WT binding, and was increased ˜30% relative to NSFCh07.
(§2) In vitro NSF binding assays were performed essentially as described in Barnard et. al. (1997) J Cell Biol 139(4): 875-883; and Bayless et al. (2016), Proc Natl Acad Sci USA 113(47): E7375-E7382; Briefly, 20 μg of each respective recombinant α-SNAP protein was added to the bottom of a 1.5-mL polypropylene tube and incubated at 25° C. for 20 min. Unbound α-SNAP proteins were then washed by adding α-SNAP wash buffer [25 mM Tris, pH 7.4, 50 mM KCl, 1 mM DTT, 0.4 mg/mL bovine serum albumin (BSA)]. After removal of wash buffer, 20 μg of recombinant NSF (1 μg/μL in NSF binding buffer), was then immediately added and incubated on ice for 10 min. The solution was then removed, and samples were immediately washed 2× with NBB to remove any unbound NSF. Samples were then boiled in 1×SDS loading buffer and separated on a 10% Bis-Tris SDS-PAGE, and silver-stained using the ProteoSilver Kit (Sigma-Aldrich), according to the manufacturer directions. The percentage of NSF bound by α-SNAP was then calculated using densitometric analysis with ImageJ.

[2] = molecular target: T2, α-SNAPRhg1WT (wild-type α-SNAP encoded by Glyma.18G022500, Williams 82) (Glycine max (soybean)); test: as above
T2 construct: also called WT α-SNAP; wild-type (WT) Rhg1 α-SNAP
T2 chain: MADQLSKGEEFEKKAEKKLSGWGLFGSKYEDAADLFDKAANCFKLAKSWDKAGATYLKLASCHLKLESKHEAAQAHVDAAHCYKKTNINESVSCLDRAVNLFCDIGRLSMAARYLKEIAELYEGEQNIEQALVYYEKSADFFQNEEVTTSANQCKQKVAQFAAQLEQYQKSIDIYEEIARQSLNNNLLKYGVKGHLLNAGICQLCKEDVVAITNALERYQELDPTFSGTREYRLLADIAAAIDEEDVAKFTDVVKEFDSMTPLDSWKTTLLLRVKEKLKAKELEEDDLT
Source text: as §1, §2

[3] = molecular target: T3, α-SNAPRhg1LC (low copy Rhg1 resistance-type α-SNAP, Glyma.18G022500 Peking) (Glycine max (soybean)); test: as above
T3 construct: Recombinant protein, His-SUMO tag cleaved off; also called low-copy (LC) Rhg1 α-SNAP
T3 chain: T1 chain with K203Q, D208E, Q285E, H286Y, A288V
Source text: as §1, §2

[4] = molecular target: T4, α-SNAPRhg1LC1-279 (α-SNAPRhg1LC lacking the final 10 C-terminal residues) (Glycine max (soybean)); test: in vitro binding
T4 construct: both say that the final 10 C-terminal residues are missing; also called α-SNAPRhg1LC1-280
T4 chain: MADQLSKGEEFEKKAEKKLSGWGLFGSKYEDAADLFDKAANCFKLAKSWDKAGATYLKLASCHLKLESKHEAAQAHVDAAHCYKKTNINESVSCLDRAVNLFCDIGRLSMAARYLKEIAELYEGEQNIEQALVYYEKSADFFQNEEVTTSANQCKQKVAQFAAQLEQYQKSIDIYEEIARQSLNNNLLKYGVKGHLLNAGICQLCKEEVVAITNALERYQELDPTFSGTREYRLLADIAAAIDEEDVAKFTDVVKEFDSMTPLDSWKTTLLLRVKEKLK

[5] = molecular target: T5, α-SNAPRhg1WT1-279 (WT α-SNAP lacking the final 10 C-terminal residues) (Glycine max (soybean)); test: in vitro binding of recombinant NSF to tube-adsorbed α-SNAP, silver-stained SDS-PAGE
T5 construct: also called α-SNAP lacking the C-terminus
T5 chain: T4 chain with E208D
Experimental: To verify that NSFRAN07/α-SNAP binding is dependent upon NSF-binding patches at the α-SNAP C-terminus, NSFRAN07 binding to an otherwise WT α-SNAP lacking the final 10 C-terminal residues (α-SNAPRhg1WT₁₋₂₇₉) was determined. Binding of NSFCh07WT or NSFRAN07 binding with α-SNAP Rhg1WT₁₋₂₇₉ was disrupted, similar to the no α-SNAP binding controls (FIG. 10C).
as §2

[6] = molecular target: T1, α-SNAPRhg1HC (high copy Rhg1 …); test: in vitro binding, densitometry of silver-stained SDS-PAGE across three independent experiments; reference NSFCh07 on the same α-SNAP
Source text: as §1
(§3) In vitro NSF binding assays were performed essentially as described in Barnard et. al. (1997) J Cell Biol 139(4): 875-883; and Bayless et al. (2016), Proc Natl Acad Sci USA 113(47): E7375-E7382; Briefly, 20 μg of each respective recombinant α-SNAP protein was added to the bottom of a 1.5-mL polypropylene tube and incubated at 25° C. for 20 min. […] The percentage of NSF bound by α-SNAP was then calculated using densitometric analysis with ImageJ.

[7] = molecular target: T3, α-SNAPRhg1LC (low copy Rhg1 …); test: as above
Source text: as §1, §3

Binder	binding result [1]	binding result [2]	binding result [3]	binding result [4]	binding result [5]	increase of binding relative to NSFCh07 [6]	increase of binding relative to NSFCh07 [7]
B1	binds	binds	binds	no binding	no binding (tested: 20 µg NSF (1 µg/µL))	–	–
B2	–	binds	–	no binding	no binding (tested: 20 µg NSF (1 µg/µL))	~30%	~30%

From patent US20190194683A1 (WISCONSIN ALUMNI RESEARCH FOUNDATION, published 2019)
